Source: publication doi:10.1101/2021.05.19.444868

Target: trimeric post-fusion hMPV B2 F protein (trypsinized) (human metapneumovirus (hMPV), subgroup B2 | T4 bacteriophage)
Assay: SEC

“trimeric post-fusion hMPV B2 F protein (trypsinized) (natural protein)” was tested, and the stoichiometry N was 3.
